Here are results for one molecule from patent US20250313605A1.

Experiment [1] deals with human glucagon receptor (human), P47871. Put plainly: cell-based or functional assay.
The target in experiment [2] is T1, human GIP receptor (human), P48546.
T1 chain: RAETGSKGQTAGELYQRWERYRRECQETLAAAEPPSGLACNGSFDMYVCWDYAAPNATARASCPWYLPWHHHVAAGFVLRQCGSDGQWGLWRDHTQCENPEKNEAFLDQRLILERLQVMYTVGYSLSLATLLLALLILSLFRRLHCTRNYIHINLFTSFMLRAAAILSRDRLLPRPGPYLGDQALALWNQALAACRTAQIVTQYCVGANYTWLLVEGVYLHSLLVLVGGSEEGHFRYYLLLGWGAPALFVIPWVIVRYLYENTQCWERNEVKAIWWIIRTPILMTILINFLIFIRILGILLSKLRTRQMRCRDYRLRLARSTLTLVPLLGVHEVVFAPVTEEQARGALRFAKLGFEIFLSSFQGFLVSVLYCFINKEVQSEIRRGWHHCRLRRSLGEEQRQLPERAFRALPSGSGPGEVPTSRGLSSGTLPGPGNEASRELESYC
Put plainly: cell-based or functional assay.

For experiment [3], the target named is T2, human GLP-1 receptor (human), P43220.
T2 chain: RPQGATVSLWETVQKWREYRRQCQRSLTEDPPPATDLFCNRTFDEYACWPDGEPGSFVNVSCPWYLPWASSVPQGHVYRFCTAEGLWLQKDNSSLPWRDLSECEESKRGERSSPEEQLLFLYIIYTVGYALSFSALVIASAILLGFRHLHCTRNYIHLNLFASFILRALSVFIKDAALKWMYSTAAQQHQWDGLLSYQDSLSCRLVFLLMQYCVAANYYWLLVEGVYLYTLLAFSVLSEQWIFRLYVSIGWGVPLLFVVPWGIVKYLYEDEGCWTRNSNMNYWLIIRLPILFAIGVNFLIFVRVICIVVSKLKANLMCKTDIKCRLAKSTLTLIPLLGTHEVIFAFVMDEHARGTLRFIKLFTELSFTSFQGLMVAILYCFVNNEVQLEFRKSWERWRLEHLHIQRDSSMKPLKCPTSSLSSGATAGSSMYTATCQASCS
The experiment in a line: cell-based or functional assay.

Experiment [4] addresses human glucagon receptor (human), P47871. The experiment in a line: radioligand competition SPA, HEK293 membranes. (In general: In a radioligand displacement assay an active substance lowers the binding of a labelled ligand.)
Experiment [5] deals with T1, human GIP receptor (human), P48546. Put plainly: radioligand competition SPA, HEK293 membranes.
In experiment [6] the target is T2, human GLP-1 receptor (human), P43220. Put plainly: radioligand competition SPA, HEK293 membranes.

*1 amine or outer side, *2 acyl side, *3 side chain or, on linkers, in order; H or OH if unused. Where no end group is shown, it is not given here. Side-chain parts run from the residue outwards. [ ]: non-standard residue; d: D form. The star is where a group is joined. C20 diacid = O=C(O)CCCCCCCCCCCCCCCCCCC(=O)*; γGlu = O=C(O)[C@H](CCC(=O)[*:2])N[*:1]; αMeL = CC(C)C[C@](C)(N)C(=O)O; AEEA = NCCOCCOCC(=O)O; Aib = CC(C)(N)C(=O)O

Chain of human glucagon receptor (human), P47871 (P47871 26-477): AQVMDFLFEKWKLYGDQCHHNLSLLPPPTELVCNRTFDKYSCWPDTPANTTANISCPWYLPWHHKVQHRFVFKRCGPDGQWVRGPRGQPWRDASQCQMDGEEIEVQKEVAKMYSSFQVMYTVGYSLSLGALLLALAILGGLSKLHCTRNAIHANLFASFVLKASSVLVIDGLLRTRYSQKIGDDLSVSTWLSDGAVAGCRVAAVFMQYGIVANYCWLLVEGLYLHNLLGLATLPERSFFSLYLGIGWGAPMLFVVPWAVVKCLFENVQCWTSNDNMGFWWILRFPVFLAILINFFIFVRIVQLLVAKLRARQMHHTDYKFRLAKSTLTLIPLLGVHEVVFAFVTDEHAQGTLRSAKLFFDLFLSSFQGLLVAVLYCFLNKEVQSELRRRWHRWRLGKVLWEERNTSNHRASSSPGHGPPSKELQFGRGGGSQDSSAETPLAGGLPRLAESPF

B1: Example 2 (peptide)
peptide: Y[Aib]QGTFTSDYSI[αMeL]LDKK([AEEA-γGlu-C20 diacid])AQHAFIEYLLA[Aib]GPSSGAPPPS-NH2
modifications: N-terminus assumed
SMILES: CC[C@H](C)[C@H](NC(=O)[C@H](Cc1ccccc1)NC(=O)[C@H](C)NC(=O)[C@H](Cc1c[nH]cn1)NC(=O)[C@H](CCC(N)=O)NC(=O)[C@H](C)NC(=O)[C@H](CCCCNC(=O)COCCOCCNC(=O)CC[C@H](NC(=O)CCCCCCCCCCCCCCCCCCC(=O)O)C(=O)O)NC(=O)[C@H](CCCCN)NC(=O)[C@H](CC(=O)O)NC(=O)[C@H](CC(C)C)NC(=O)[C@](C)(CC(C)C)NC(=O)[C@@H](NC(=O)[C@H](CO)NC(=O)[C@H](Cc1ccc(O)cc1)NC(=O)[C@H](CC(=O)O)NC(=O)[C@H](CO)NC(=O)[C@@H](NC(=O)[C@H](Cc1ccccc1)NC(=O)[C@@H](NC(=O)CNC(=O)[C@H](CCC(N)=O)NC(=O)C(C)(C)NC(=O)[C@@H](N)Cc1ccc(O)cc1)[C@@H](C)O)[C@@H](C)O)[C@@H](C)CC)C(=O)N[C@@H](CCC(=O)O)C(=O)N[C@@H](Cc1ccc(O)cc1)C(=O)N[C@@H](CC(C)C)C(=O)N[C@@H](CC(C)C)C(=O)N[C@@H](C)C(=O)NC(C)(C)C(=O)NCC(=O)N1CCC[C@H]1C(=O)N[C@@H](CO)C(=O)N[C@@H](CO)C(=O)NCC(=O)N[C@@H](C)C(=O)N1CCC[C@H]1C(=O)N1CCC[C@H]1C(=O)N1CCC[C@H]1C(=O)N[C@@H](CO)C(N)=O
For the molecule B1, the cAMP EC50 (0.1% casein) worked out at 0.0553 nM in experiment [1], 0.0474 nM in experiment [2] and 0.207 nM in experiment [3]. Besides, the cAMP EC50 (FBS and BSA present) in experiment [1] came to 2.66 nM; in experiment [2], 2.19 nM; in experiment [3], 12.8 nM. The figures for the Ki in experiment [4], in experiment [5] and in experiment [6] were 3.71 nM, 0.0665 nM and 4.5 nM, respectively.
